Each block holds one binder with its values, some of them ahead of it.
Assays:
[1] = biological target: T1, human c-Kit-Fc fusion protein (human, UniProt P10721 26-520, limits assumed); assay: ELISA, coated human c-Kit-Fc, FIG. 3D, against AMG191 (members named at paragraph 118)
T1 construct: not shown: Fc part of the fusion protein
Protocol: (§1) Antigen binding activity measurement by ELISA. 96-well plates (Nunc, Roskilde, Denmark) were coated with 1 ug/ml human c-Kit-Fc fusion protein in phosphate-buffered saline (PBS) for 16 hr at 4° C. After blocking for 1 hr with 0.4% BSA in PBS at room temperature, anti-c-Kit antibodies were added in 1/3 sequential dilutions, and incubated for 1 hr at room temperature. Plates were subsequently washed three times and incubated with HRP-conjugated goat anti-human kappa-specific antibody for 1 hr at room temperature. After washing, plates were developed with TMB. The reaction was stopped with 2M […], and OD was measured at 450 nm.

[2] = biological target: T1, human c-Kit-Fc fusion protein; assay: ELISA, coated human c-Kit-Fc, FIG. 3C, against AMG191
Protocol: as §1

[3] = biological target: T1, human c-Kit-Fc fusion protein; assay: ELISA, coated human c-Kit-Fc
Protocol: as §1

[4] = biological target: T1, human c-Kit-Fc fusion protein; assay: ELISA, coated human c-Kit-Fc, against AMG191
Protocol: as §1

[5] = biological target: T1, human c-Kit-Fc fusion protein; assay: ELISA, coated human c-Kit-Fc, FIG. 2C (members named at paragraph 117)
Protocol: as §1

[6] = biological target: T1, human c-Kit-Fc fusion protein; assay: ELISA, coated human c-Kit-Fc, FIG. 2D (members named at paragraph 117)
Protocol: as §1

[7] = biological target: T1, human c-Kit-Fc fusion protein; assay: ELISA, coated human c-Kit-Fc; AMG191 is the reference
Protocol: as §1

T1 sequence (P10721 26-520 limits assumed): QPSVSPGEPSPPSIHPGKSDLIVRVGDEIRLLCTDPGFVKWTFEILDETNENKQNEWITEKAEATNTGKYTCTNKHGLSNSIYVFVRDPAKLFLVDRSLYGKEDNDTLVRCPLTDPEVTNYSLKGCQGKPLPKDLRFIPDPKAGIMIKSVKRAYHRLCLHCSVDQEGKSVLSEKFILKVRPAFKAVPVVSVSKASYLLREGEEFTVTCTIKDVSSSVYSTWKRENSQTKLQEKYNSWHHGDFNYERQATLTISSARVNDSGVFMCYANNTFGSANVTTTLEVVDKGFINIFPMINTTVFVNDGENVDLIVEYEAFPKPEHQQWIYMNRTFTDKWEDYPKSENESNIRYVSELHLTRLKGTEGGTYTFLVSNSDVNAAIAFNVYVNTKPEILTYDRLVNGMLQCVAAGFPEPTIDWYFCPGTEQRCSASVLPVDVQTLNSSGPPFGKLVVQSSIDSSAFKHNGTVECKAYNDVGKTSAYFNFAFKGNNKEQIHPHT

binding result [6]: binds
B9: AF-2-1 (antibody, V domains shown)
VH: QVQLVQSGAEVKKPGASVKVSCKASGYTFTSYNMHWVRQAPGQGLEWMGVIYSGQGDTSYNQKFKGRVTITADKSTSTAYMELSSLRSEDTAVYYCARERDTRFGNWGQGTLVTVSS
VL: DIVMTQSPDSLAVSLGERATINCRASESVDIYGQSFMHWYQQKPGQPPKLLIYLASNLESGVPDRFSGSGSGTDFTLTISSLQAEDVAVYYCQQNNEDPYTFGGGTKVEIK

binding result [7]: binds
B10: AMG191 (antibody, V domains shown)
VH: QVQLVQSGAEVKKPGASVKVSCKASGYTFTSYNMHWVRQAPGQGLEWMGVIYSGNGDTSYNQKFKGRVTITADKSTSTAYMELSSLRSEDTAVYYCARERDTRFGNWGQGTLVTVSS
VL: DIVMTQSPDSLAVSLGERATINCRASESVDIYGNSFMHWYQQKPGQPPKLLIYLASNLESGVPDRFSGSGSGTDFTLTISSLQAEDVAVYYCQQNNEDPYTFGGGTKVEIK
notes: Humanized form of HB-10716; constant region has an N to E mutation of position 297 (unglycosylated, silenced Fc); kappa light chain implied by the anti-human kappa detection

binding result [5]: binds
B11: AF112 (antibody, human IgG1, V domains shown)
VH: QVQLVQSGAEVKKPGASVKVSCKASGYTFTSYNMHWVRQAPGQGLEWMGVIYSGNGDTSYAQKFQGRVTITADKSTSTAYMELSSLRSEDTAVYYCARERDTRFGNWGQGTLVTVSS
VL: DIVMTQSPDSLAVSLGERATINCRASESVDIYGQSFMHWYQQKPGQPPKLLIYLASNLESGVPDRFSGSGSGTDFTLTISSLQAEDVAVYYCQQNNEDPYTFGGGTKVEIK

Second part, the binder before the results:

B1: NF11 (antibody, V domains shown)
VH: EVQLLESGGGLVQPGGSLRLSCAASGFTFTSYNMHWVRQAPGKGLEWVGVIYSGNGDTSYAQKFKGRFTISADKSKNTAYLQMNSLRAEDTAVYYCARERDTRFGNWGQGTLVTVSS
VL: DIVMTQSPLSLPVTPGEPASISCRASESVDIYGQSFMHWYLQKPGQSPQLLIYLASNLESGVPDRFSGSGSGTDFTLKISRVEAEDVGVYYCQQNNEDPYTFGGGTKVEIK
binding result [1]: binds

B2: NF (antibody, V domains shown)
VH: EVQLLESGGGLVQPGGSLRLSCAASGFTFTSYNMHWVRQAPGKGLEWVGVIYSGNGDTSYNQKFKGRFTISADKSKNTAYLQMNSLRAEDTAVYYCARERDTRFGNWGQGTLVTVSS
VL: DIVMTQSPLSLPVTPGEPASISCRASESVDIYGNSFMHWYLQKPGQSPQLLIYLASNLESGVPDRFSGSGSGTDFTLKISRVEAEDVGVYYCQQNNEDPYTFGGGTKVEIK
notes: also called antibody with the new frameworks (NF)
binding result [2]: binds

B3: NF112 (antibody, human IgG1, V domains shown)
VH: EVQLLESGGGLVQPGGSLRLSCAASGFTFTSYNMHWVRQAPGKGLEWVGVIYSGNGDTSYAQKFQGRFTISADKSKNTAYLQMNSLRAEDTAVYYCARERDTRFGNWGQGTLVTVSS
VL: DIVMTQSPLSLPVTPGEPASISCRASESVDIYGQSFMHWYLQKPGQSPQLLIYLASNLESGVPDRFSGSGSGTDFTLKISRVEAEDVGVYYCQQNNEDPYTFGGGTKVEIK
binding result [3]: binds

B4: NF12 (antibody, V domains shown)
VH: EVQLLESGGGLVQPGGSLRLSCAASGFTFTSYNMHWVRQAPGKGLEWVGVIYSGNGDTSYNQKFQGRFTISADKSKNTAYLQMNSLRAEDTAVYYCARERDTRFGNWGQGTLVTVSS
VL: DIVMTQSPLSLPVTPGEPASISCRASESVDIYGQSFMHWYLQKPGQSPQLLIYLASNLESGVPDRFSGSGSGTDFTLKISRVEAEDVGVYYCQQNNEDPYTFGGGTKVEIK
binding result [3]: binds

B5: AF11 (antibody, V domains shown)
VH: QVQLVQSGAEVKKPGASVKVSCKASGYTFTSYNMHWVRQAPGQGLEWMGVIYSGNGDTSYAQKFKGRVTITADKSTSTAYMELSSLRSEDTAVYYCARERDTRFGNWGQGTLVTVSS
VL: DIVMTQSPDSLAVSLGERATINCRASESVDIYGQSFMHWYQQKPGQPPKLLIYLASNLESGVPDRFSGSGSGTDFTLTISSLQAEDVAVYYCQQNNEDPYTFGGGTKVEIK
binding result [4]: binds

B6: HF112 (antibody, human IgG1, V domains shown)
VH: QVQLVQSGAEVKKPGASVKVSCKASGYTFTSYNMHWVRQAPGQGLEWMGVIYSGNGDTSYAQKFQGRVTITADKSTSTAYMELSSLRSEDTAVYYCARERDTRFGNWGQGTLVTVSS
VL: DIVMTQSPLSLPVTPGEPASISCRASESVDIYGQSFMHWYLQKPGQSPQLLIYLASNLESGVPDRFSGSGSGTDFTLKISRVEAEDVGVYYCQQNNEDPYTFGGGTKVEIK
binding result [3]: binds

B7: AF12 (antibody, human IgG1, V domains shown)
VH: QVQLVQSGAEVKKPGASVKVSCKASGYTFTSYNMHWVRQAPGQGLEWMGVIYSGNGDTSYNQKFQGRVTITADKSTSTAYMELSSLRSEDTAVYYCARERDTRFGNWGQGTLVTVSS
VL: DIVMTQSPDSLAVSLGERATINCRASESVDIYGQSFMHWYQQKPGQPPKLLIYLASNLESGVPDRFSGSGSGTDFTLTISSLQAEDVAVYYCQQNNEDPYTFGGGTKVEIK
binding result [5]: binds

B8: AF-3 (antibody, V domains shown)
VH: QVQLVQSGAEVKKPGASVKVSCKASGYTFTSYNMHWVRQAPGQGLEWMGVIYSGNGDTSYNQKFKGRVTITADKSTSTAYMELSSLRSEDTAVYYCARDRDTRFGNWGQGTLVTVSS
VL: DIVMTQSPDSLAVSLGERATINCRASESVDIYGQSFMHWYQQKPGQPPKLLIYLASNLESGVPDRFSGSGSGTDFTLTISSLQAEDVAVYYCQQNNEDPYTFGGGTKVEIK
binding result [6]: binds
